The record followed here is patent publication US20210179715A1 (Genentech, published 2021).

As a reminder, the Kd is the equilibrium constant for the complex coming apart. The low end stands for tighter binding, the high end for weaker binding. Usually koff stands for a measure of how fast the partners let go of each other. In general, kon refers to the rate constant with which the complex forms. Lower therefore signals slower complex formation.

For assay [1], the target named is T1, human LY6G6D-Fc (human, UniProt O95868 20-104).
T1 construct: also called hu Ly6G6D; huLY6G6D; not shown: linker and Fc part
T1 sequence: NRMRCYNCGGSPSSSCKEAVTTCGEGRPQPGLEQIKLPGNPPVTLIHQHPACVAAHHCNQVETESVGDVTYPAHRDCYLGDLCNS
In words: BIAcore SPR; chimeric Fab; Ly6G6D-Fc captured on Protein A chip; 37 C.

The target in assay [2] is T1, human LY6G6D-Fc. In words: BIAcore SPR; LY6G6D-Fc on chip; TDB flowed; 37 C. As for the experimental part: TDBs comprising the anti-LY6G6D arm 20Al2.QNTv12 and the anti-CD3 38E4.v1 (left panel; produced using a two-cell-manufacturing system), 38E4.v1 MD1 (center panel; produced using a one-cell-manufacturing system), or 38E4.v1 MD4 arm (right panel; produced using a one-cell-manufacturing system) were assayed for affinity for a human Ly6G6D polypeptide (FIG. 25) using a BIAcore assay.
On the technique in general: Surface plasmon resonance follows binding to a sensor surface in real time, without labels.

The target in assay [3] is T2, 27mer human CD3 polypeptide conjugated to biotin (human, conjugated to biotin (site not stated)).
T2 construct: The assay text says only '27mer human CD3 polypeptide'; also called HuCD3e pept biotin
T2 peptide: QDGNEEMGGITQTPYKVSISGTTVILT
In words: BIAcore T200 SPR; biotin 27mer CD3 peptide on SA chip; TDB flowed; 37 C. As for the experimental part: The MD1 and MD4 variants thus retained the high affinity of 38E4v1. Assays were performed using a BIAcore T200: 27mer human and cyno CD3 polypeptides were conjugated to biotin and were immobilized on a SA CM5 chip, and TDBs were flowed through at 100 μl/min at 37° C.

The target in assay [4] is T2, 27mer human CD3 polypeptide conjugated …. Described as above. As for the experimental part: Assays were performed using a BIAcore T200. 27mer human and cyno CD3 polypeptides were conjugated to biotin and were immobilized on a SA CM5 chip. LY6G6D TDBs were flowed through at 37° C.
Assay [5] deals with T1, human LY6G6D-Fc. Kind of assay: BIAcore SPR; LY6G6D-Fc on chip; TDB flowed; 37 C. As for the experimental part:
TDBs comprising the anti-LY6G6D 20A12.QNTv12 arm and the anti-CD3 38E4.v1 arm (FIG. 24A) or 40G5C arm (FIG. 24B) were assayed for affinity for a human and cyno Ly6G6D polypeptide using a BIAcore assay. Ly6G6D-Fc was directly immobilized on the chip, and the TDB was flowed through at 37° C. Similar assays were performed for TDBs comprising the anti-LY6G6D 1G4 arm and the anti-CD3 38E4.v1 arm (FIG. 24C) or 40G5C arm (FIG. 24D).
This is another data set of the same source.

For assay [6], the target named is T1, human LY6G6D-Fc. In words: BIAcore SPR; LY6G6D-Fc on chip; Fab flowed; 37 C. As for the experimental part: (§1) The humanized rb.20A12 variant 20A12.QNTv12, the humanized rb.6E10 variant 6E10.v114, and the anti-LY6G6D 1G4 arm were paired with the anti-CD3 38E4v1 or 40G5c arm as TDBs and tested for affinity to human and cynomolgus LY6G6D in a BIAcore® assay. Rabbit 20Al2, rabbit 6E10, and humanized 20A12.QNTv12 and 20A12.SNVv12 were additionally assayed for binding as antigen-binding fragments (Fabs). LY6G6D-Fc was directly immobilized on a chip, and TDBs were flowed through at 37° C., except for the rb6E10 Fab, which was assayed at 25° C.

Assay [7] has as its target T1, human LY6G6D-Fc. In words: BIAcore SPR. As for the experimental part: as §1
In assay [8] the target is T3, polypeptide comprising amino acids 93-104 of LY6G6D (HRDCYLGDLCNS) (human).
T3 construct: also called LY6G6D peptide
T3 peptide: HRDCYLGDLCNS
Kind of assay: co-crystal structure, 2.2 A. As for the experimental part:
Ten 20A12.QNTv12 Fabs were tested.

Assay [9] concerns the target T3, polypeptide comprising amino acids …. In words: co-crystal structure.

Where “and” joins values, the source holds several entries; their conditions need not be identical. Identical values can stand only once. Like-named read-outs stand apart in the source and are kept apart here.

B1: rb20A12.IA (C35I-C50A) chimeric Fab (Fab, V domains shown)
VH: QQQLEESGGDLVKPGASLTLTCTASGFDFVNNAMIWVRQAPGKGLEWIAALSFADNTAYYATWASGRFTISKISSTTVTLRMTSLTGADTATYFCMRGDLWGPGTLVTVSS
VL: DIVMTQTPSSVSAAVGGTVTINCQASESITRYLNWYQQKPGQPPKLLIYDASKLPSGVPSRFKGSGSGTQFTLTTSDLECADAATYYCQSTSFRGRSYNNTFGGGTEVVVK
notes: also called rabbit 20A12 comprising C35I and C50A (IA) mutations
B1 came in with a dissociation constant (Kd) in the assay with human LY6G6D-Fc [1] of 0.86 nM.

B2: LY6G6D TDB assembled using a one-cell system comprising the anti-LY6G6D 20A12.QNTv12 arm (one-cell) and the anti-CD3 38E4v1 MD4 arm (bispecific antibody, V domains shown)
VH 1: EVQLLESGGGLVQPGGSLRLSCAASGFDFVNNAMIWVREAPGKGLEWVSALSFADNTAYYATWASGRFTISRDSSKTTVYLQMNSLRAEDTAVYYCMRGDLWGPGTLVTVSS
VL 1: DIQMTQSPSTLSASVGDRVTITCQASESITRYLNWYQKKPGKAPKLLIYDASKLPSGVPSRFSGSGSGTEFTLTISSLQPDDFATYYCQSTSFRGRSYQNTFGGGTKVEIK
VH 2: EVQLVQSGAEVKKPGASVKVSCKASGFTFTSYYIHWVRKAPGQGLEWIGWIYPENDNTKYNEKFKDRVTITADTSTSTAYLELSSLRSEDTAVYYCARDGYSRYYFDYWGQGTLVTVSS
VL 2: DIVMTQSPDSLAVSLGERATINCKSSQSLLNSRTRKNYLAWYQEKPGQPPKLLIYWASTRKSGVPDRFSGSGSGTDFTLTISSLQAEDVAVYYCKQSFILRTFGQGTKVEIK
notes: also called 20A12.QNTv12.MD4/38E4v1; MD4 one-cell
B2: the dissociation constant (Kd) is 1.89 nM in the assay with human LY6G6D-Fc [2]; 18.8 nM and 18.6 nM in assay [3]; 18.7 nM in assay [4]. The koff in the assay with human LY6G6D-Fc [2] was 0.000559 s⁻¹; in assay [3], 0.0544 s⁻¹ and 0.0495 s⁻¹. Besides, the on-rate constant (kon) with human LY6G6D-Fc [2] was 296000 M⁻¹ s⁻¹; in [3], 2.89e+06 M⁻¹ s⁻¹ and 2.66e+06 M⁻¹ s⁻¹.

B3: LY6G6D TDB comprising the anti-LY6G6D 1G4 arm and the anti-CD3 38E4.v1 arm (bispecific antibody, V domains shown)
VH 1: EVQLVQSGAEVKKPGASVKVSCKASGYTFTTYVMHWVRQAPGQGLEWMGYINPYNDGTKYNEKFKGRVTMTRDTSISTAYMELSRLRSDDTAVYYCGRRNFDYWGQGTLVTVSS
VL 1: DIVMTQSPDSLAVSLGERATINCKSSQSLLLSGNQENYLAWHQQKPGQPPKTLITWASTRISGVPDRFSGSGSGTDFTLTISSLQAEDVAVYYCQQSYSAPYTFGGGTKVEIK
VH 2: EVQLVQSGAEVKKPGASVKVSCKASGFTFTSYYIHWVRQAPGQGLEWIGWIYPENDNTKYNEKFKDRVTITADTSTSTAYLELSSLRSEDTAVYYCARDGYSRYYFDYWGQGTLVTVSS
VL 2: DIVMTQSPDSLAVSLGERATINCKSSQSLLNSRTRKNYLAWYQQKPGQSPKLLIYWTSTRKSGVPDRFSGSGSGTDFTLTISSLQAEDVAVYYCKQSFILRTFGQGTKVEIK
notes: also called 1G4/38E4v1
For B3, in the assay with human LY6G6D-Fc [5], the Kd worked out at 16.3 nM, the off-rate (koff) stood at 0.00886 s⁻¹ and the kon came out at 544000 M⁻¹ s⁻¹.

B4: hu20A12.SNVv12 Fab (Fab, V domains shown)
VH: EVQLLESGGGLVQPGGSLRLSCAASGFDFVNNAMIWVRQAPGKGLEWVSALSFADNTAYYATWASGRFTISRDSSKTTVYLQMNSLRAEDTAVYYCMRGDLWGPGTLVTVSS
VL: DIQMTQSPSTLSASVGDRVTITCQASESITRYLNWYQQKPGKAPKLLIYDASKLPSGVPSRFSGSGSGTEFTLTISSLQPDDFATYYCQSTSFRGRSYSNVFGGGTKVEIKR
Turning to B4, in the assay with human LY6G6D-Fc [6], the Kd is 0.0195 nM, the koff came to 4.26e-05 s⁻¹ and the kon amounted to 2.18e+06 M⁻¹ s⁻¹.

B5: LY6G6D TDB assembled using a one-cell system comprising the anti-LY6G6D 20A12.QNTv12 arm (one-cell) and the anti-CD3 38E4v1 (WT) arm (bispecific antibody, V domains shown)
VH 1: EVQLLESGGGLVQPGGSLRLSCAASGFDFVNNAMIWVREAPGKGLEWVSALSFADNTAYYATWASGRFTISRDSSKTTVYLQMNSLRAEDTAVYYCMRGDLWGPGTLVTVSS
VL 1: DIQMTQSPSTLSASVGDRVTITCQASESITRYLNWYQKKPGKAPKLLIYDASKLPSGVPSRFSGSGSGTEFTLTISSLQPDDFATYYCQSTSFRGRSYQNTFGGGTKVEIK
VH 2: EVQLVQSGAEVKKPGASVKVSCKASGFTFTSYYIHWVRKAPGQGLEWIGWIYPENDNTKYNEKFKDRVTITADTSTSTAYLELSSLRSEDTAVYYCARDGYSRYYFDYWGQGTLVTVSS
VL 2: DIVMTQSPDSLAVSLGERATINCKSSQSLLNSRTRKNYLAWYQEKPGQSPKLLIYWTSTRKSGVPDRFSGSGSGTDFTLTISSLQAEDVAVYYCKQSFILRTFGQGTKVEIK
notes: also called WT one-cell; one-cell WT
For B5, in assay [3], the dissociation constant (Kd) is 19.9 nM and 21.3 nM; the off-rate constant (koff) was 0.0516 s⁻¹ and 0.0498 s⁻¹; the on-rate (kon) was 2.59e+06 M⁻¹ s⁻¹ and 2.34e+06 M⁻¹ s⁻¹. This molecule yielded a Kd in [4] of 20.6 nM.

B6: hu20A12.QNTv12 Fab (Fab, V domains shown)
VH: EVQLLESGGGLVQPGGSLRLSCAASGFDFVNNAMIWVRQAPGKGLEWVSALSFADNTAYYATWASGRFTISRDSSKTTVYLQMNSLRAEDTAVYYCMRGDLWGPGTLVTVSS
VL: DIQMTQSPSTLSASVGDRVTITCQASESITRYLNWYQQKPGKAPKLLIYDASKLPSGVPSRFSGSGSGTEFTLTISSLQPDDFATYYCQSTSFRGRSYQNTFGGGTKVEIKR
On to B6, for which the affinity in the assay with human LY6G6D-Fc [7], expressed as Kd, was 0.14 nM. The binding result in [8] is recorded as “binds”. For the same molecule, in the assay with human LY6G6D-Fc [6], the Kd was 0.136 nM, the koff amounted to 0.000227 s⁻¹ and the on-rate (kon) stood at 1.67e+06 M⁻¹ s⁻¹.

B7: LY6G6D TDB assembled using a one-cell system comprising the anti-LY6G6D 20A12.QNTv12 arm (one-cell) and the anti-CD3 38E4v1 MD1 arm (bispecific antibody, V domains shown)
VH 1: EVQLLESGGGLVQPGGSLRLSCAASGFDFVNNAMIWVREAPGKGLEWVSALSFADNTAYYATWASGRFTISRDSSKTTVYLQMNSLRAEDTAVYYCMRGDLWGPGTLVTVSS
VL 1: DIQMTQSPSTLSASVGDRVTITCQASESITRYLNWYQKKPGKAPKLLIYDASKLPSGVPSRFSGSGSGTEFTLTISSLQPDDFATYYCQSTSFRGRSYQNTFGGGTKVEIK
VH 2: EVQLVQSGAEVKKPGASVKVSCKASGFTFTSYYIHWVRKAPGQGLEWIGWIYPENDNTKYNEKFKDRVTITADTSTSTAYLELSSLRSEDTAVYYCARDGYSRYYFDYWGQGTLVTVSS
VL 2: DIVMTQSPDSLAVSLGERATINCKSSQSLLNSRTRKNYLAWYQEKPGQPPKLLIYWASTRESGVPDRFSGSGSGTDFTLTISSLQAEDVAVYYCTQSFILRTFGQGTKVEIK
notes: also called 20A12.QNTv12.MD1/38E4v1; MD1 one-cell
In the assay with human LY6G6D-Fc [2], B7 yielded a Kd of 1.9 nM, a koff of 0.000796 s⁻¹ and a kon of 420000 M⁻¹ s⁻¹. For the same molecule, in assay [3], the Kd is 32.8 nM and 32.4 nM; the koff is 0.0504 s⁻¹ and 0.0456 s⁻¹; the on-rate (kon) is 1.54e+06 M⁻¹ s⁻¹ and 1.41e+06 M⁻¹ s⁻¹. The dissociation constant Kd in [4] came to 32.6 nM.

B8: 1G4 Fab (Fab, V domains shown)
VH: EVQLVQSGAEVKKPGASVKVSCKASGYTFTTYVMHWVRQAPGQGLEWMGYINPYNDGTKYNEKFKGRVTMTRDTSISTAYMELSRLRSDDTAVYYCGRRNFDYWGQGTLVTVSS
VL: DIVMTQSPDSLAVSLGERATINCKSSQSLLLSGNQENYLAWHQQKPGQPPKTLITWASTRISGVPDRFSGSGSGTDFTLTISSLQAEDVAVYYCQQSYSAPYTFGGGTKVEIKR
notes: also called Fab of 1G4
As for B8, the binding result in assay [9] is reported as “binds”.
